Target: MPXV E5_∆N (Mpox virus, UniProt A0A7H0DN89 323-785)
Assay: cryo-EM (2.67 A)
Conditions: protein: recombinant; tags: SUMO fusion; protease-treated (ULP or TEV); chain copies: 6

MPXV E5_∆N, sequence (A0A7H0DN89 323-785): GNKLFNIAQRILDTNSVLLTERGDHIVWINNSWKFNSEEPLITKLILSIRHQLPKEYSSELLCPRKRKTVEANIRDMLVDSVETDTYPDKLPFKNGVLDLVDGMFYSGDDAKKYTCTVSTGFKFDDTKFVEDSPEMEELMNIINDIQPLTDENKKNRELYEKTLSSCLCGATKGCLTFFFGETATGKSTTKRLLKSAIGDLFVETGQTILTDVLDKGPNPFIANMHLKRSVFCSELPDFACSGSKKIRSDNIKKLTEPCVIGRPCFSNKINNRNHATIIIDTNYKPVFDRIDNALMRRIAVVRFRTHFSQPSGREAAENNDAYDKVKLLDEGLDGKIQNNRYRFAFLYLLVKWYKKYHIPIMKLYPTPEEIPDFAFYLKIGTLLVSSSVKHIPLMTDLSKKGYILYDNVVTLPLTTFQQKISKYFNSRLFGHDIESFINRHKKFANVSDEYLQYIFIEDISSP

B1: Forked DNA (mixed)
DNA 1: AACGAGTCAAGCGCATCCCGTTTTTTTTTTTTTTT
DNA 2: TTTTTTTTTTTTTTTCGGGATGCGCTTGACTCGTT
Does B1 bind?
Result: binds

Source: article PMC11196578
